Data published in patent publication US20100041597A1 (published 2010).

T1: PKC-ζ (endogenous, human cell extracts) (human, UniProt Q05513 1-592)
T1 construct: also called PKC-zeta
T1 sequence (looked up): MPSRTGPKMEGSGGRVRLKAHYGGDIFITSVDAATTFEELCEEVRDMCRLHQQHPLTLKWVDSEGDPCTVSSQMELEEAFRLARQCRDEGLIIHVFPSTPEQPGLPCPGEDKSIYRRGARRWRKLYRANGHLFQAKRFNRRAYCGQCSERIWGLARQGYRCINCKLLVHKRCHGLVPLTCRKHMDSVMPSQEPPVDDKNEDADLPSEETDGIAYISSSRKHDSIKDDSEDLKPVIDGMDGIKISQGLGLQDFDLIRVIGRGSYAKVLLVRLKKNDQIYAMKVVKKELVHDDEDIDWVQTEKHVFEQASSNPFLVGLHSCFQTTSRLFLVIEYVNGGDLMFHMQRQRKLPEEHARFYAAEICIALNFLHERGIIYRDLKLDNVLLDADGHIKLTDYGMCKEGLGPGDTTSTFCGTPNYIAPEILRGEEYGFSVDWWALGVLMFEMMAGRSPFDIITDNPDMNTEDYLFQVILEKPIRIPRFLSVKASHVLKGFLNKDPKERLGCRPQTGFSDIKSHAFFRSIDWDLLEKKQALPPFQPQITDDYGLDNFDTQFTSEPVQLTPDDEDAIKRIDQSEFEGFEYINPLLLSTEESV

T2: PKC-ι (endogenous, human cell extracts) (human, UniProt P41743 2-596)
T2 construct: also called PKC-iota
T2 sequence (looked up): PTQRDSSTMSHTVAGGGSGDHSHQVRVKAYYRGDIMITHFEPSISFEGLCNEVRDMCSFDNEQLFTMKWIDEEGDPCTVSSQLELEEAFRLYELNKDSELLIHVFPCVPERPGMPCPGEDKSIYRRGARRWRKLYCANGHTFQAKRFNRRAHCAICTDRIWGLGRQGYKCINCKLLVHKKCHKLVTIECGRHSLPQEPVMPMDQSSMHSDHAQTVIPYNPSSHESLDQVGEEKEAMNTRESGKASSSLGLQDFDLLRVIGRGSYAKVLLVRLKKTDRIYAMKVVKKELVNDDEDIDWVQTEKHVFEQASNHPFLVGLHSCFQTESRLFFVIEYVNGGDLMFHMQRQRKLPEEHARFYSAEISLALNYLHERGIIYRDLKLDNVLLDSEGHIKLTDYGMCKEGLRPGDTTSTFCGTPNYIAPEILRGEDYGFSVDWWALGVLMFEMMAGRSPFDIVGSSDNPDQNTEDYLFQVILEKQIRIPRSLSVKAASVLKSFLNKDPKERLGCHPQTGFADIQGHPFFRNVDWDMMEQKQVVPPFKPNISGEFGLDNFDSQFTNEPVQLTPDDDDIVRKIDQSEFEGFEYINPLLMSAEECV

T3: PKC-ε (endogenous, human cell extracts) (human, UniProt Q02156 1-737)
T3 construct: Two bands on the blot, said to be alternate splicing variants; also called PKC-epsilon; PKC-ε Band 1
T3 sequence (looked up): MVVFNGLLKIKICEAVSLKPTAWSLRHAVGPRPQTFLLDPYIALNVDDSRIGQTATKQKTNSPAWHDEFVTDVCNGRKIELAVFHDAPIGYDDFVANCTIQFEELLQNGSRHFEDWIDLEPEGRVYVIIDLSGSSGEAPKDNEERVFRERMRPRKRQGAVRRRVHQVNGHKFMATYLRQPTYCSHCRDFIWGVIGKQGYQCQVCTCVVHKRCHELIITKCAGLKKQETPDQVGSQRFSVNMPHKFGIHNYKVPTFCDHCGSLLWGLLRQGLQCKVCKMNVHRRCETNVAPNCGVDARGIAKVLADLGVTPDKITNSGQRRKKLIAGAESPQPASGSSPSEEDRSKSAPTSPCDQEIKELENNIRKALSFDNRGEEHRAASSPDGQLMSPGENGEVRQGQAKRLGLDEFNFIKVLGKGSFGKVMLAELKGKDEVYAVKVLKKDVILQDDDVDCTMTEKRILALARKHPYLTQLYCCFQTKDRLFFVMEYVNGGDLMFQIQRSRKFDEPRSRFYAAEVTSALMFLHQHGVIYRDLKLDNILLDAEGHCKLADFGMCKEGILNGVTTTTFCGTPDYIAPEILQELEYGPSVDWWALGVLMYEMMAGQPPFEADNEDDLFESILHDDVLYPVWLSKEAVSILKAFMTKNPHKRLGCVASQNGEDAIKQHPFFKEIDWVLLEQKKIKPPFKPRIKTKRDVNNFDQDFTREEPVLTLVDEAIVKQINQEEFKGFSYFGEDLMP


How the values were obtained:
[1] = biological target: T1, PKC-ζ (endogenous, human cell extracts); assay: Western-blot competition on cell extracts against the anti-PKC-ζ primary antibody; band densitometry
Protocol: (§1) Binding efficiency and specificity of the peptides PRE 2, 3, 4, 5, 6, 7, 8, 9, 10, 11, 12 and 13 (see Table 3) was also tested using cytoplasmic extracts from different cell lines expressing appropriate PKC isoforms as described for Example 1. Briefly, the protein cytoplasmic extracts were separated by electrophoresis and transferred onto nitrocellulose membranes by standard Western blotting procedures. The bands on the Western blots were detected with matching primary antibodies and alkaline phosphatase conjugated secondary antibody. The bands were then scanned and the relative density measurements obtained.
(§2) This procedure to assess the binding characteristics of the PREs is based on competition binding of the PRE with the primary anti-isoform PKC specific antibodies. The lower the measured band density, the greater the binding of the PRE to the PKC isoform. The PREs were added at 10 and 20 times (10×, 20×) the primary antibody concentration, according to classical competition between antigenic peptide and primary antibody. The following cell lines (obtained from the ATCC) were used: H661—NCI human lung carcinoma NSCLC; MDAMB231—human highly invasive breast cancer cell line from pleural effusion; LS180—human colon adenocarcinoma; LnCAP—human prostate adenocarcinoma; CCD16Lu—human lung fibroblasts; Du145—human prostate carcinoma brain metastasis, and T24—human bladder carcinoma.

[2] = biological target: T2, PKC-ι (endogenous, human cell extracts); assay: Western-blot competition on cell extracts against the anti-PKC-ι primary antibody; peptide at 10X and 20X the antibody concentration; band densitometry (lower band = peptide bound)
Protocol: as §1, §2

[3] = biological target: T3, PKC-ε (endogenous, human cell extracts); assay: Protocol B blot competition, IMR-32 extract, competitor anti-PKC-ε Ab, Band 1; PRE 20 µg
Protocol: The ability of the peptides PRE 2 and PRE 3 (see Table 3) to interfere with the binding of a PKC-α-specific polyclonal antibody (Santa Cruz Biotechnology, Inc.) to PKC-α was determined using a modified version of the protocol outlined above in which the test peptide was added directly to the cell extract prior to electrophoresis at a concentration of either 5× or 15× the concentration of the protein applied to each well of the gel for the Western blots (20 μg).
Peptides PRE 2, PRE 3 and PRE 4 (see Table 3) were tested for their ability to interfere with the binding of isoform-specific polyclonal antibodies (Santa Cruz Biotechnology, Inc.) to PKC-ε using the general protocol described in Example 3. Two bands, representing alternate splicing variants of PKC-ε, were identified on the Western blot using this anti-PKC-ε antibody.

Row | Binder | binding result [1] | binding result [2] | band intensity [3] | inhibition (%) [3] | relative intensity (%) [3]
1 | Ac-KDANQLIGISI-NH2 (Synthetic peptide; also called peptide PRE 6) [PRE 6] | no binding (tested: 20X the primary antibody concentration) |  |  |  | 
2 | Ac-AKGIQEVKGGDAQNLIGISI-NH2 (Synthetic peptide; also called peptide PRE 3) [PRE 3] |  | binds | 5.12 | 99% | 0.12%
3 | Ac-KDAQNLIGISI-NH2 (Synthetic peptide; also called peptide PRE 4) [PRE 4] |  | binds | 184 | 42.9% | 57.1%
4 | Ac-RDAQNLI-NH2 (Synthetic peptide; also called peptide PRE 13; Ac-RDAQNLI-NH2) [PRE 13] | no binding (tested: 20X the primary antibody concentration) |  |  |  | 
